Read-outs that look alike come from different tables or passages of the source.
Key:
Experiment in all cases: cell-based or functional assay
[1] = target: Receptor for Advanced Glycation Endproducts (RAGE), human, full length (human) (UniProt Q15109)
[2] = target: Receptor for Advanced Glycation Endproducts (RAGE), human, full length (human) (UniProt Q15109); remark: listed apart in the source
[3] = target: Receptor for Advanced Glycation Endproducts (RAGE), human, full length (human) (UniProt Q15109); remark: listed apart in the source

Chain of UniProt Q15109 (Q15109 23-404 limits assumed): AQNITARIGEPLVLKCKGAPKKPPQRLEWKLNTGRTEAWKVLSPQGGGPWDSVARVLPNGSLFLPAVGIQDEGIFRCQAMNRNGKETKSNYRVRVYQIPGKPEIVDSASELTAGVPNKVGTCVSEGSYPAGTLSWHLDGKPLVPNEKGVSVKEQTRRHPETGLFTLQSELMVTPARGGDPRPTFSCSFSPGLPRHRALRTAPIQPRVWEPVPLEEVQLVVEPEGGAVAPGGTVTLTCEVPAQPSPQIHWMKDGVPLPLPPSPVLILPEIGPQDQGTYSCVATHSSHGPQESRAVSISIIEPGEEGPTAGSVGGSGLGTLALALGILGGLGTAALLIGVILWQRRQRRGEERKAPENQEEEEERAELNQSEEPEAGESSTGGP

Row | Substance | IC50, cell viability, TOV112D ovarian cancer cells, 24 h [1] | IC50, cell viability, HEC1A endometrial cancer cells, 24 h [2] | IC50, cell viability, HEC1A endometrial cancer cells, 48 h [2] | IC50, cell viability, HEC1A endometrial cancer cells, 96 h [2] | IC50, cell viability, HEC1B endometrial cancer cells, 48 h [2] | IC50, cell viability, HEC1B endometrial cancer cells, 96 h [2] | IC50, cell viability, HEC50 endometrial cancer cells, 48 h [2] | IC50, cell viability, HEC50 endometrial cancer cells, 96 h [2] | IC50, cell viability, Ishikawa endometrial cancer cells, 24 h [2] | IC50, cell viability, Ishikawa endometrial cancer cells, 48 h [2] | IC50, cell viability, Ishikawa endometrial cancer cells, 96 h [2] | IC50, cell viability, TOV112D ovarian cancer cells, 48 h [2] | IC50, cell viability, TOV112D ovarian cancer cells, 96 h [2] | IC50, cell viability, healthy endometrial cells, 48 h [2] | IC50, cell viability, healthy endometrial cells, 96 h [2] | IC50, cell viability, healthy ovarian cells, 96 h [2] | further results
1 | SNIPER-MMAE (MAB11451 conjugated with vcMMAE) (antibody) | 16.7 µg/mL | 10.3 µg/mL | 4.69 µg/mL | 1.02 µg/mL | 8.65 µg/mL | 5.67 µg/mL | 7.64 µg/mL | 2.18 µg/mL | 31 µg/mL | 9.54 µg/mL | 3.86 µg/mL | 16.2 µg/mL | 0.54 µg/mL | 10.7 µg/mL | 15.2 µg/mL | 41 µg/mL | IC50, cell viability, HEC1B endometrial cancer cells, 24 h [2]: 29 µg/mL; IC50, cell viability, TOV112D ovarian cancer cells, 24 h [2]: 22.6 µg/mL
2 | SNIPER-MMAF (MAB11451 conjugated with mcMMAF) (antibody) | 2.5 µg/mL | 24.1 µg/mL | 0.81 µg/mL | 0.74 µg/mL | 1.96 µg/mL | 1.27 µg/mL | 0.86 µg/mL | 0.94 µg/mL | 16.7 µg/mL | 6.48 µg/mL | 2.42 µg/mL | 2.51 µg/mL | 0.59 µg/mL | 7.25 µg/mL | 4.17 µg/mL | 4.87 µg/mL | IC50, cell viability, Ishikawa endometrial cancer cells, 24 h [3]: 16.7 µg/mL; IC50, cell viability, HEC50 endometrial cancer cells, 24 h [2]: 17.8 µg/mL; IC50, cell viability, healthy ovarian cells, 48 h [2]: 14.4 µg/mL

— US20200055934A1
